Source: FireProtDB (doi:10.1021/bi048926x)
“And” between values parts separate entries of the source, which are not always exact repeats. Equal entries are not always repeated.

Settings: Pseudomonas aeruginosa (strain ATCC 15692 / DSM 22644 / CIP 104116 / JCM 14847 / LMG 12228 / 1C / PRS 101 / PAO1), pH 7, Thermal, reversible: No, whole UniProt chain shown

B1: Azurin wild type, P00282 (protein)
chain: MLRKLAAVSLLSLLSAPLLAAECSVDIQGNDQMQFNTNAITVDKSCKQFTVNLSHPGNLPKNVMGHNWVLSTAADMQGVVTDGMASGLDKDYLKPDDSRVIAHTKLIGSGEKDSVTFDVSKLKEGEQYMFFCTFPGHSALMKGTLTLK
For B1, the Tm (Absorbance, Phosphate 10 mM) was 78 °C and the “unfolding enthalpy (calorimetric)” value (DSC, Potassium phosphate 100 mM) was 141 kcal/mol and 130 kcal/mol and 136 kcal/mol.
